In patent US5854216A, “Marker for growth hormone-releasing factor receptors” (Universite de Montreal, priority 1996, dated 1998) one finds IC50 and Relative affinity (%) against hGRF(1-29)NH2 data, which are given here for 19 substances.

The target of this assay is T1, GRF receptor of rat adenopituitary (rat, UniProt Q02644-2).
T1 sequence: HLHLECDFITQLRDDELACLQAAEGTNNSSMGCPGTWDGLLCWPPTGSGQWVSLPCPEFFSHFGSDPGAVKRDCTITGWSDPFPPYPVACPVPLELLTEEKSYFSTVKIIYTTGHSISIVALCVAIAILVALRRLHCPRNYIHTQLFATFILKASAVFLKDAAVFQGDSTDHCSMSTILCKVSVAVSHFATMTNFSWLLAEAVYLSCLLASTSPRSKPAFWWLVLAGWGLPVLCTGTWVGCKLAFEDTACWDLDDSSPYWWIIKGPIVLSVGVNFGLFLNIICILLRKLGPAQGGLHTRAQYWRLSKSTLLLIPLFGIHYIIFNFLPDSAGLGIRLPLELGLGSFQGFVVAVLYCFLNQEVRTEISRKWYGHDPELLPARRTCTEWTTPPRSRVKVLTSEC
Briefly: displacement of 125I-Tyr10 hGRF(1-44)NH2 from rat anterior pituitary homogenate. (In general: Displacement assays read how much labelled ligand stays bound in the presence of the test substance.)

As a reminder, the IC50 is the concentration at which inhibition is half-maximal. Low readings indicate greater potency in that assay, high ones weaker potency in that assay. As to “4'-benzoyl-phenylalyl^10 !hGRF(1-29)NH2 (from UniProt P01286) (peptide)”, the IC50 amounted to 5.77 nM and the Relative affinity (%) against hGRF(1-29)NH2 was found to be 45%.
Turning to “npa^3 analogue of hGRF(1-29)NH2 (Table 7, number 5) (from UniProt P01286) (peptide)”, the IC50 is 197 nM and the Relative affinity (%) against hGRF(1-29)NH2 is 1.3%.
In the case of “npa0 analogue of hGRF(1-29)NH2 (Table 7, number 2) (from UniProt P01286) (peptide)”, the Relative affinity (%) against hGRF(1-29)NH2 came out at 14%.
“bpa^0 analogue of hGRF(1-29)NH2 (Table 7, number 13) (from UniProt P01286) (peptide)” showed an IC50 of 34.5 nM and a Relative affinity (%) against hGRF(1-29)NH2 of 8%.
Take “His^1, bpa^9, Nle^27 analogue of hGRF(1-29)NH2 (Table 7, number 17) (from UniProt P01286) (peptide)”: the IC50 came to 4.4 nM and the Relative affinity (%) against hGRF(1-29)NH2 is 61%.
As for “bpa^9 analogue of hGRF(1-29)NH2 (Table 7, number 15) (from UniProt P01286) (peptide)”, the IC50 stood at 28.4 nM and the Relative affinity (%) against hGRF(1-29)NH2 worked out at 9%.
On to “npa^7 analogue of hGRF(1-29)NH2 (Table 7, number 9) (from UniProt P01286) (peptide)”, for which the IC50 worked out at 33.7 nM and the Relative affinity (%) against hGRF(1-29)NH2 turned out to be 7.9%.
“4'-nitro-phenylanalylalanine^9 !hGRF(1-29)NH2 (from UniProt P01286) (peptide)”: the IC50 came out at 9.97 nM and the Relative affinity (%) against hGRF(1-29)NH2 was 27%.
In the case of “D-Ala^2, D-Tyr^10,D-Ala^15,Lys^22 ! hGRF(1-29)NH2 (from UniProt P01286) (peptide)”, the Relative affinity (%) against hGRF(1-29)NH2 is 104%.
As to “4'-nitro-phenylalanine^10 !hGRF(1-29)NH2 (from UniProt P01286) (peptide)”, the IC50 is 4.43 nM and the Relative affinity (%) against hGRF(1-29)NH2 came out at 60%.
Regarding “npa^6 analogue of hGRF(1-29)NH2 (Table 7, number 8) (from UniProt P01286) (peptide)”, the IC50 was found to be 30.9 nM and the Relative affinity (%) against hGRF(1-29)NH2 was determined as 8.6%.
For the substance “npa^2 analogue of hGRF(1-29)NH2 (Table 7, number 4) (from UniProt P01286) (peptide)”, the IC50 is 751 nM and the Relative affinity (%) against hGRF(1-29)NH2 came out at 0.3%.
The matching figures for “bpa^4 analogue of hGRF(1-29)NH2 (Table 7, number 14) (from UniProt P01286) (peptide)”: 64.7 nM and 4%.
“npa^5 analogue of hGRF(1-29)NH2 (Table 7, number 7) (from UniProt P01286) (peptide)” showed a concentration for half-maximal inhibition (IC50) of 27.7 nM and a Relative affinity (%) against hGRF(1-29)NH2 of 10%.
Consider “D-Ala^2, Ala^8, Ala^15, Lys^22 analogue of hGRF(1-29)NH2 (Table 11, No. 13) (from UniProt P01286) (peptide)”, for which the Relative affinity (%) against hGRF(1-29)NH2 was 1330%.
In turn, “D-Ala^2,D-Tyr^10 ! hGRF(1-29)NH2 (from UniProt P01286) (peptide)” yielded an IC50 of 9.65 nM and a Relative affinity (%) against hGRF(1-29)NH2 of 25%.
The substance “npa^8 analogue of hGRF(1-29)NH2 (Table 7, number 10) (from UniProt P01286) (peptide)” came in with an IC50 of 54.1 nM and a Relative affinity (%) against hGRF(1-29)NH2 of 5%.
“npa^1 analogue of hGRF(1-29)NH2 (Table 7, number 3) (from UniProt P01286) (peptide)” had an IC50 of 376 nM and a Relative affinity (%) against hGRF(1-29)NH2 of 7%.
With “npa^4 analogue of hGRF(1-29)NH2 (Table 7, number 6) (from UniProt P01286) (peptide)”, the IC50 turned out to be 8.65 nM and the Relative affinity (%) against hGRF(1-29)NH2 turned out to be 31%.
